Measurements from patent publication EP4813403A1 (Hangzhou Zhongmeihuadong Pharmaceutical Co., Ltd., dated 2025).

Target: T1, human GIP receptor (human, UniProt P48546 22-466)
T1 sequence (looked up): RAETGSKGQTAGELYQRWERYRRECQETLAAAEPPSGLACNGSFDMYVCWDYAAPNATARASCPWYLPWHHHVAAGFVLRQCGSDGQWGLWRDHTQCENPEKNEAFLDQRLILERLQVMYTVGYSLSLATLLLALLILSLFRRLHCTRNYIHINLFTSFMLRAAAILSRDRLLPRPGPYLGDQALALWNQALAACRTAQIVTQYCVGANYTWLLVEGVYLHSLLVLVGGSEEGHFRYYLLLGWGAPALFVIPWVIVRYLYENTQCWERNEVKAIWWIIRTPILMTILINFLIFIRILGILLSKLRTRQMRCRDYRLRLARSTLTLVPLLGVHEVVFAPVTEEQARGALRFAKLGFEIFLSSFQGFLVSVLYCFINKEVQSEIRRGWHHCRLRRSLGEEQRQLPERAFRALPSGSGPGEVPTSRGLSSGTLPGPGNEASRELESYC
Assay: cell-based or functional assay

B1: P007 (peptide)
peptide: YXEGTXTSDYXIXLDKQAQAEFVKWLLKGGPSSGAPPPSK
modifications: Aib at 2; αMePhe at 6; Aib at 11; Aib at 13; K at position 24 ε-amino conjugated with ([2-(2-amino-ethoxy)-ethoxy]-acetyl)2-(γ-Glu)1-CO-(CH2)16-CO2H; C-terminal primary amide
- EC50 value (ratio: EC50 of endogenous ligand / EC50 of test compound), LANCE Ultra cAMP assay, HEK293/GIPR cells: 1.15 ratio
